Results: publication PMC8596991 (Methods in molecular biology (Clifton, N.J.), 2020)

Target: T1, Rrp41/Rrp45 heterodimer (S. cerevisiae, UniProt P46948 1-246; Q05636 1-305)
T1 sequence (looked up) 1: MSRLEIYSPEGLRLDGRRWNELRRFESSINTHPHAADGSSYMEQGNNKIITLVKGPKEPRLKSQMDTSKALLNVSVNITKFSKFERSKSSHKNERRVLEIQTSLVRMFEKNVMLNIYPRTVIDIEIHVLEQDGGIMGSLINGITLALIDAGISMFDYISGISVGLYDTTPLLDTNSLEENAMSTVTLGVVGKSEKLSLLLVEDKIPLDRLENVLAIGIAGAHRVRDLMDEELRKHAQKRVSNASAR
T1 sequence (looked up) 2: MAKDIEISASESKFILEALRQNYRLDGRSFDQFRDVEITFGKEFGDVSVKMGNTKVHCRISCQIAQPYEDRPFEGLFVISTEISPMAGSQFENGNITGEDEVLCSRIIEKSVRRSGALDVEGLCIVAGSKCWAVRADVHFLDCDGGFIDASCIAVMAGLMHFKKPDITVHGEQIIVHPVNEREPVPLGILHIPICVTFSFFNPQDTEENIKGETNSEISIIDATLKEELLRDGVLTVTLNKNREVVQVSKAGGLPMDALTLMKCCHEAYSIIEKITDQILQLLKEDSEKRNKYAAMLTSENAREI
Assay: SEC

B1: Csl4 (natural protein, S. cerevisiae, UniProt P53859 1-292, looked up)
chain: MACNFQFPEIAYPGKLICPQYGTENKDGEDIIFNYVPGPGTKLIQYEHNGRTLEAITATLVGTVRCEEEKKTDQEEEREGTDQSTEEEKSVDASPNDVTRRTVKNILVSVLPGTEKGRKTNKYANNDFANNLPKEGDIVLTRVTRLSLQRANVEILAVEDKPSPIDSGIGSNGSGIVAAGGGSGAATFSVSQASSDLGETFRGIIRSQDVRSTDRDRVKVIECFKPGDIVRAQVLSLGDGTNYYLTTARNDLGVVFARAANGAGGLMYATDWQMMTSPVTGATEKRKCAKPF
B1: binds.

B2: Rrp4 (natural protein, S. cerevisiae, UniProt P38792 1-359, looked up)
chain: MSEVITITKRNGAFQNSSNLSYNNTGISDDENDEEDIYMHDVNSASKSESDSQIVTPGELVTDDPIWMRGHGTYFLDNMTYSSVAGTVSRVNRLLSVIPLKGRYAPETGDHVVGRIAEVGNKRWKVDIGGKQHAVLMLGSVNLPGGILRRKSESDELQMRSFLKEGDLLNAEVQSLFQDGSASLHTRSLKYGKLRNGMFCQVPSSLIVRAKNHTHNLPGNITVVLGVNGYIWLRKTSQMDLARDTPSANNSSSIKSTGPTGAVSLNPSITRLEEESSWQIYSDENDPSISNNIRQAICRYANVIKALAFCEIGITQQRIVSAYEASMVYSNVGELIEKNVMESIGSDILTAEKMRGNGN
B2: binds.

B3: Rrp40 (natural protein, S. cerevisiae, UniProt Q08285 1-240, looked up)
chain: MSTFIFPGDSFPVDPTTPVKLGPGIYCDPNTQEIRPVNTGVLHVSAKGKSGVQTAYIDYSSKRYIPSVNDFVIGVIIGTFSDSYKVSLQNFSSSVSLSYMAFPNASKKNRPTLQVGDLVYARVCTAEKELEAEIECFDSTTGRDAGFGILEDGMIIDVNLNFARQLLFNNDFPLLKVLAAHTKFEVAIGLNGKIWVKCEELSNTLACYRTIMECCQKNDTAAFKDIAKRQFKEILTVKEE
B3: binds.
